Patent US10154881B2, “Methods and compositions for tissue adhesives” (ARIZONA BOARD OF REGENTS FOR AND ON BEHALF OF ARIZONA STATE …, priority 2012, dated 2018)
Several values for one entry are separate records, joined by “and”; a condition that tells them apart may be missing. Equal entries are not always repeated.

B1: C12ELP: Elastin-like polypeptide with 12 cysteine residues, SEQ ID NO:2, expressed in E. coli (protein)
chain: MVSACRGPGVGVPGVGVPGVGVPGVGVPGVGVPGVGVPGVGVPGVGVPGVGVPGVGVPGVGVPGVGVPGVGVPGVGVPGVGVPGVGVPGVGVPGVGVPGVGVPGVGVPGVGVPGVGVPGVGVPGVGVPGVGVPGVGVPGVGVPGVGVPGVGVPGVGVPGVGVPGVGVPGVGVPGVGVPGVGVPGVGVPGVGVPGVGVPGVGVPGVGVPG
modifications: elastin-like polypeptide
B2: C8ELP: Elastin-like polypeptide with 8 cysteine residues, SEQ ID NO:1, expressed in E. coli (protein)
chain: MVSACRGPGVGVPGVGVPGVGVPGVGVPGVGVPGVGVPGVGVPGVGVPGVGVPGVGVPGVGVPGVGVPGVGVPGVGVPGVGVPGVGVPGVGVPGVGVPGVGVPGVGVPGVGVPGVGVPGVGVPGVGVPGVGVPGVGVPGVGVPGVGVPGVGVPGVGVPGVGVPGVGVPGVGVPGVGVPGVGVPGVGVPGVGVPGVGVPGVGVPGVGVPGVGVPGVGVPGVGVPGCGVPGVGVPGVGVPGVGVPGVGVPGCGVPGVGVPGVGVPGVGVPGVGVPGCGVPGVGVPGVGVPGVGVPGVGVPGCGVPGVGVPGVGVPGVGVPGVGVPGCGVPGVGVPGVGVPGVGVPGVGVPGCGVPGVGVPGVGVPGVGVPGVGVPGCGVPGVGVPGVGVPGVGVPGVGVPGCGVPGVGVPGWP
modifications: elastin-like polypeptide

Assay: Determination of transition temperature (Tt) of ELPs by absorbance at 610 nm
Type: physicochemical
Settings: 0.5× PBS; temperature at which absorbance at 610 nm reaches 50% of maximum
Procedure: The transition temperatures (Tt) of C8ELP and C12ELP were characterized by monitoring the absorbance at 610 nm as a function of temperature with an UV-visible spectrophotometer (Beckman DU530) in 0.5× phosphate-buffered solution (PBS). Briefly, 1 ml of C8ELP (0.5 mg/ml in 0.5×PBS) and 1 ml of C12ELP (1 mg/ml in 0.5×PBS) were prepared and placed in 1.5-ml disposable cuvettes. The temperature of CnELP (n: the number of cysteines in the ELP repeat sequence; n=8/12) was tuned by placing the CnELP-contained cuvette into a Precision 288 Digital Water Bath (Thermo Scientific) and was recalibrated by FLUKE 54 II (Type K) thermometer before absorbance measurement. The absorbance of CnELP was monitored at 610 nm with an UV-visible spectrophotometer (Beckman DU530) immediately after withdrawing the cuvette out of the water bath. The Tt is defined as the temperature at which the absorbance of CnELP solution reaches 50% of the maximum value. The temperature response of the C8ELP and C12ELP indicated Tt values of 31.3 and 30.5° C., respectively.

Molecule	Transition temperature (Tt)
B1	30.4 °C and 30.5 °C
B2	31.3 °C
